# Paper PMC10368727, “Sequestration of histidine kinases by non-cognate response regulators establishes a threshold level of stimulation for bacterial two-component signaling” (Nature Communications, 2023)
# T1: phosphorylated, GFP-tagged HK MtrB (cytosolic catalytic domain) (M. tuberculosis, UniProt P9WGK9 234-567)
# T1 construct: also called MtrB~P; P~MtrB-GFP
# T1 sequence: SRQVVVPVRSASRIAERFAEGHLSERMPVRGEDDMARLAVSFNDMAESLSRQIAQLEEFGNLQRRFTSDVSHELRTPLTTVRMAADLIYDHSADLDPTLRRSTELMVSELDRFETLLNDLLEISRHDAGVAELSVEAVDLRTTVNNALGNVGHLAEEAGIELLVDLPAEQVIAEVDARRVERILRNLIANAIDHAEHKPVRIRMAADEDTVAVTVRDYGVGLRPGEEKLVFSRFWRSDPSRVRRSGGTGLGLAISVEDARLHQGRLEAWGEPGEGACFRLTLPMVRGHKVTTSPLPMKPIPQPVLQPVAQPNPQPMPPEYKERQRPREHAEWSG
# Biological target: T1, phosphorylated, GFP-tagged HK MtrB …
# Test: MST
# Settings: both partners purified
row,Binder,Kd
1,"MtrA^D56N, phosphor-defective mutant of MtrA (natural protein) MDTMRQRILVVDDDASLAEMLTIVLRGEGFDTAVIGDGTQALTAVRELRPDLVLLNLMLPGMNGIDVCRVLRADSGVPIVMLTAKTDTVDVVLGLESGADDYIMKPFKPKELVARVRARLRRNDDEPAEMLSIADVEIDVPAHKVTRNGEQISLTPLEFDLLVALARKPRQVFTRDVLLEQVWGYRHPADTRLVNVHVQRLRAKVEKDPENPTVVLTVRGVGYKAGPP",371 ± 130 nM
2,"NarL^D61N, phosphor-defective mutant of NarL (natural protein) MSNPQPEKVRVVVGDDHPLFREGVVRALSLSGSVNVVGEADDGAAALELIKAHLPDVALLNYRMPGMDGAQVAAAVRSYELPTRVLLISAHDEPAIVYQALQQGAAGFLLKDSTRTEIVKAVLDCAKGRDVVAPSLVGGLAGEIRQRAAPVAPVLSAREREVLNRIACGQSIPAIAAELYVAPSTVKTHVQRLYEKLGVSDRAAAVAEAMRQRLLD",78 ± 13 nM
